Experimental findings from patent publication US20050054575A1 (US Dept. of Health and Human Services, published 2005) are described below.

Assay [1] addresses T1, HLA-A2 (human).
T1 construct: whole, on cells; also called HLA-A2.1; MHC-class I A2
As to the kind of experiment: flow cytometry of HLA-A2 on T2A2 cells, peptide 0 to 50 µg/ml. The protocol:
(§1) Peptide Binding to HLA-A2. […] Briefly, 1×10⁶ cells in serum-free Iscove's modified Dulbecco's complete medium were incubated with peptides at a concentration of 50 μg/ml in 24 well culture plates at 37° C. in 5% CO₂. Flow cytometry for peptide binding was performed using T2 cells and single-color analysis. After cells were washed three times in DPBS, as described above, they were incubated for 1 h with HLA-A2 specific MAb (One Lambda, Inc.) using […] of a 1× working dilution per 10⁶ cells. UPC-10 (Cappel/Organon Teknika) was used as isotype control. The cells were washed three times and incubated with 1:100 dilution of FITC-labeled anti-mouse IgG (Becton Dickinson). Analysis was conducted with the FACScan, as described above. Cells were maintained on ice during all cell preparation and staining.
For orientation: A flow cytometer gives signals particle by particle.

In assay [2] the target is T1, HLA-A2. As to the kind of experiment: flow cytometry of HLA-A2 on T2A2 cells. As to the method:
as §1

Assay [3] concerns the target T1, HLA-A2. Kind of assay: flow cytometry of HLA-A2 on peptide-loaded T2A2 cells. The protocol: as §1

B1: PSA-3 (L-155) also called PSA-3A (peptide)
peptide: VLSNDVCAQV
notes: Synthetic analog peptide; also called agonist peptide PSA-3A
For the molecule B1, the binding result with HLA-A2 [1] is “binds”.

B2: PSA-3 (Y-154/L-155) (peptide)
peptide: YLSNDVCAQV
notes: Synthetic analog peptide; also called PSA-3 (L155/Y154)
Consider B2, for which the binding result with HLA-A2 [2] is “binds”.
On the same count and under the same terms, the result for YISNDVCAQV (Synthetic analog peptide) [PSA-3 (Y-154)] reads “binds”.
As to VISNDVCAQL (Synthetic analog peptide) [PSA-3 (L-163)], the binding result in the assay with HLA-A2 [3] is given as “no binding (tested: 0 to 50 µg/ml)”.
